Results reported in patent US20230250154A1 (CYTONICS, published 2023).

T1: ADAMTS4 (human, UniProt O75173 213-685, limits assumed)
T1 sequence (looked up): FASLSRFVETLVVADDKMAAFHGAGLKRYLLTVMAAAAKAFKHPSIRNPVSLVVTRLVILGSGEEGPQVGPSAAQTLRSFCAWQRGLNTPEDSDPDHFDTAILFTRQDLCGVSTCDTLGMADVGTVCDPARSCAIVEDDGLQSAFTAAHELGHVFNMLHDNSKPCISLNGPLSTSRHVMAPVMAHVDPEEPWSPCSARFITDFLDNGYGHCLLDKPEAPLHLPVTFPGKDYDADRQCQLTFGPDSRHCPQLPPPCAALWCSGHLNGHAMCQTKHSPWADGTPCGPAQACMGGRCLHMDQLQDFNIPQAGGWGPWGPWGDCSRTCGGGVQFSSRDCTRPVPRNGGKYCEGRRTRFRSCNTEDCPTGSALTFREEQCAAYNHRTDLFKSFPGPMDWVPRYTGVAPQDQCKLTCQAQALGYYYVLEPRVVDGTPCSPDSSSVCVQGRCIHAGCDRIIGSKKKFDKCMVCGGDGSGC

T2: ADAMTS5 (human, UniProt Q9UNA0 262-622, limits assumed)
T2 sequence (looked up): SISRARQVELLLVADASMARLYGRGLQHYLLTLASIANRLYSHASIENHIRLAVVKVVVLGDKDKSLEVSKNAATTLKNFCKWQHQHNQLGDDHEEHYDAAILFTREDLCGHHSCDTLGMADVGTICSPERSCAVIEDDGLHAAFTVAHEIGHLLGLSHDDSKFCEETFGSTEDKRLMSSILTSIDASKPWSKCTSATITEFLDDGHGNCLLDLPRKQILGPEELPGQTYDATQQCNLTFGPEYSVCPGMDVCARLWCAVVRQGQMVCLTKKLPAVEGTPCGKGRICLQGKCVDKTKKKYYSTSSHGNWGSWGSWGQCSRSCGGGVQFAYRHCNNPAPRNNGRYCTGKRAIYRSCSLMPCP


Assays:
Assay in all cases: cell-based or functional assay
ADAMTS4 = molecular target: T1, ADAMTS4
ADAMTS5 = molecular target: T2, ADAMTS5
MMP13 = MMP13 (human, UniProt P45452 104-471, limits assumed)

Binder	Protease Inhibition (% of WT) (ADAMTS4)	Protease Inhibition (% of WT) (ADAMTS5)	Protease Inhibition (% of WT) (MMP13)
Variant A2M, bait region SEQ ID NO 113 (other) SVSGKPQYMVLVPSLLHTETTEKGCVLLSYLNETVTVSASLESVRGNRSLFTDLEAENDVLHCVAFAVPKSSSNEEVMFLTVQVKGPTQEFKKRTTVMVKNEDSLVFVQTDKSIYKPGQTVKFRVVSMDENFHPLNELIPLVYIQDPKGNRIAQWQSFQLEGGLKQFSFPLSSEPFQGSYKVVVQKKSGGRTEHPFTVEEFVLPKFEVQVTVPKIITILEEEMNVSVCGLYTYGKPVPGHVTVSICRKYSDASDCHGEDSQAFCEKFSGQLNSHGCFYQQVKTKVFQLKRKEYEMKLHTEAQIQEEGTVVELTGRQSSEITRTITKLSFVKVDSHFRQGIPFFGQVRLVDGKGVPIPNKVIFIRGNEANYYSNATTDEHGLVQFSINTTNVMGTSLTVRVNYKDRSPCYGYQWVSEEHEEAHHTAYLVFSPSKSFVHLEPMSHELPCGHTQTVQAHYILNGGTLLGLKKLSFYYLIMAKGGIVRTGTHGLLVKQEDMKGHFSISIPVKSDIAPVARLLIYAVLPTGDVIGDSAKYDVENCLANKVDLSFSPSQSLPASHAHLRVTAAPQSVCALRAVDQSVLLMKPDAELSASSVYNLLPEKDLTGFPGPLNDQDDEDCINRHNVYINGITYTPVSSTNEKDMYSFLEDMGLKAFTNSKIRKPKMCPQLEEGEARGSTAQEAGEGPKEEEGLGSSELEGRGSPVSQELGQRKLRKYFPETWIWDLVVVNSAGVAEVGVTVPDTITEWKAGAFCLSEDAGLGISSTASLRAFQPFFVELTMPYSVIRGEAFTLKATVLNYLPKCIRVSVQLEASPAFLAVPVEKEQAPHCICANGRQTVSWAVTPKSLGNVNFTVSAEALESQELCGTEVPSVPEHGRKDTVIKPLLVEPEGLEKETTFNSLLCPSGGEVSEELSLKLPPNVVEESARASVSVLGDILGSAMQNTQNLLQMPYGCGEQNMVLFAPNIYVLDYLNETQQLTPEIKSKAIGYLNTGYQRQLNYKHYDGSYSTFGERYGRNQGNTWLTAFVLKTFAQARAYIFIDEAHITQALIWLSQRQKDNGCFRSSGSLLNNAIKGGVEDEVTLSAYITIALLEIPLTVTHPVVRNALFCLESAWKTAQEGDHGSHVYTKALLAYAFALAGNQDKRKEVLKSLNEEAVKKDNSVHWERPQKPKAPVGHFYEPQAPSAEVEMTSYVLLAYLTAQPAPTSEDLTSATNIVKWITKQQNAQGGFSSTQDTVVALHALSKYGAATFTRTGKAAQVTIQSSGTFSSKFQVDNNNRLLLQQVSLPELPGEYSMKVTGEGCVYLQTSLKYNILPEKEEFPFALGVQTLPQTCDEPKAHTSFQISLSVSYTGSRSASNMAIVDVKMVSGFIPLKPTVKMLERSNHVSRTEVSSNHVLIYLDKVSNQTLSLFFTVLQDVPVRDLKPAIVKVYDYYETDEFAIAEYNAPCSKDLGNADYKDDDDKGASHHHHHH	115 % of WT	92 % of WT	27 % of WT
Variant A2M, bait region SEQ ID NO 112 (other) SVSGKPQYMVLVPSLLHTETTEKGCVLLSYLNETVTVSASLESVRGNRSLFTDLEAENDVLHCVAFAVPKSSSNEEVMFLTVQVKGPTQEFKKRTTVMVKNEDSLVFVQTDKSIYKPGQTVKFRVVSMDENFHPLNELIPLVYIQDPKGNRIAQWQSFQLEGGLKQFSFPLSSEPFQGSYKVVVQKKSGGRTEHPFTVEEFVLPKFEVQVTVPKIITILEEEMNVSVCGLYTYGKPVPGHVTVSICRKYSDASDCHGEDSQAFCEKFSGQLNSHGCFYQQVKTKVFQLKRKEYEMKLHTEAQIQEEGTVVELTGRQSSEITRTITKLSFVKVDSHFRQGIPFFGQVRLVDGKGVPIPNKVIFIRGNEANYYSNATTDEHGLVQFSINTTNVMGTSLTVRVNYKDRSPCYGYQWVSEEHEEAHHTAYLVFSPSKSFVHLEPMSHELPCGHTQTVQAHYILNGGTLLGLKKLSFYYLIMAKGGIVRTGTHGLLVKQEDMKGHFSISIPVKSDIAPVARLLIYAVLPTGDVIGDSAKYDVENCLANKVDLSFSPSQSLPASHAHLRVTAAPQSVCALRAVDQSVLLMKPDAELSASSVYNLLPEKDLTGFPGPLNDQDDEDCINRHNVYINGITYTPVSSTNEKDMYSFLEDMGLKAFTNSKIRKPKMCPQLEPGLAPGGEEGVEEGGPEEGVEEGGFKEGVEGEPESSGKLRKYFPETWIWDLVVVNSAGVAEVGVTVPDTITEWKAGAFCLSEDAGLGISSTASLRAFQPFFVELTMPYSVIRGEAFTLKATVLNYLPKCIRVSVQLEASPAFLAVPVEKEQAPHCICANGRQTVSWAVTPKSLGNVNFTVSAEALESQELCGTEVPSVPEHGRKDTVIKPLLVEPEGLEKETTFNSLLCPSGGEVSEELSLKLPPNVVEESARASVSVLGDILGSAMQNTQNLLQMPYGCGEQNMVLFAPNIYVLDYLNETQQLTPEIKSKAIGYLNTGYQRQLNYKHYDGSYSTFGERYGRNQGNTWLTAFVLKTFAQARAYIFIDEAHITQALIWLSQRQKDNGCFRSSGSLLNNAIKGGVEDEVTLSAYITIALLEIPLTVTHPVVRNALFCLESAWKTAQEGDHGSHVYTKALLAYAFALAGNQDKRKEVLKSLNEEAVKKDNSVHWERPQKPKAPVGHFYEPQAPSAEVEMTSYVLLAYLTAQPAPTSEDLTSATNIVKWITKQQNAQGGFSSTQDTVVALHALSKYGAATFTRTGKAAQVTIQSSGTFSSKFQVDNNNRLLLQQVSLPELPGEYSMKVTGEGCVYLQTSLKYNILPEKEEFPFALGVQTLPQTCDEPKAHTSFQISLSVSYTGSRSASNMAIVDVKMVSGFIPLKPTVKMLERSNHVSRTEVSSNHVLIYLDKVSNQTLSLFFTVLQDVPVRDLKPAIVKVYDYYETDEFAIAEYNAPCSKDLGNADYKDDDDKGASHHHHHH	108 % of WT	199 % of WT	56 % of WT
Variant A2M, bait region SEQ ID NO 114 (other) SVSGKPQYMVLVPSLLHTETTEKGCVLLSYLNETVTVSASLESVRGNRSLFTDLEAENDVLHCVAFAVPKSSSNEEVMFLTVQVKGPTQEFKKRTTVMVKNEDSLVFVQTDKSIYKPGQTVKFRVVSMDENFHPLNELIPLVYIQDPKGNRIAQWQSFQLEGGLKQFSFPLSSEPFQGSYKVVVQKKSGGRTEHPFTVEEFVLPKFEVQVTVPKIITILEEEMNVSVCGLYTYGKPVPGHVTVSICRKYSDASDCHGEDSQAFCEKFSGQLNSHGCFYQQVKTKVFQLKRKEYEMKLHTEAQIQEEGTVVELTGRQSSEITRTITKLSFVKVDSHFRQGIPFFGQVRLVDGKGVPIPNKVIFIRGNEANYYSNATTDEHGLVQFSINTTNVMGTSLTVRVNYKDRSPCYGYQWVSEEHEEAHHTAYLVFSPSKSFVHLEPMSHELPCGHTQTVQAHYILNGGTLLGLKKLSFYYLIMAKGGIVRTGTHGLLVKQEDMKGHFSISIPVKSDIAPVARLLIYAVLPTGDVIGDSAKYDVENCLANKVDLSFSPSQSLPASHAHLRVTAAPQSVCALRAVDQSVLLMKPDAELSASSVYNLLPEKDLTGFPGPLNDQDDEDCINRHNVYINGITYTPVSSTNEKDMYSFLEDMGLKAFTNSKIRKPKMCPQLEAQEAGEGKEEEGLGSPVSQELGQRSELEGRGSPTEGEARGSKLRKYFPETWIWDLVVVNSAGVAEVGVTVPDTITEWKAGAFCLSEDAGLGISSTASLRAFQPFFVELTMPYSVIRGEAFTLKATVLNYLPKCIRVSVQLEASPAFLAVPVEKEQAPHCICANGRQTVSWAVTPKSLGNVNFTVSAEALESQELCGTEVPSVPEHGRKDTVIKPLLVEPEGLEKETTFNSLLCPSGGEVSEELSLKLPPNVVEESARASVSVLGDILGSAMQNTQNLLQMPYGCGEQNMVLFAPNIYVLDYLNETQQLTPEIKSKAIGYLNTGYQRQLNYKHYDGSYSTFGERYGRNQGNTWLTAFVLKTFAQARAYIFIDEAHITQALIWLSQRQKDNGCFRSSGSLLNNAIKGGVEDEVTLSAYITIALLEIPLTVTHPVVRNALFCLESAWKTAQEGDHGSHVYTKALLAYAFALAGNQDKRKEVLKSLNEEAVKKDNSVHWERPQKPKAPVGHFYEPQAPSAEVEMTSYVLLAYLTAQPAPTSEDLTSATNIVKWITKQQNAQGGFSSTQDTVVALHALSKYGAATFTRTGKAAQVTIQSSGTFSSKFQVDNNNRLLLQQVSLPELPGEYSMKVTGEGCVYLQTSLKYNILPEKEEFPFALGVQTLPQTCDEPKAHTSFQISLSVSYTGSRSASNMAIVDVKMVSGFIPLKPTVKMLERSNHVSRTEVSSNHVLIYLDKVSNQTLSLFFTVLQDVPVRDLKPAIVKVYDYYETDEFAIAEYNAPCSKDLGNADYKDDDDKGASHHHHHH	118 % of WT	237 % of WT	75 % of WT
